Data as given in publication PMC3907290, “De Novo Prediction of PTBP1 Binding and Splicing Targets Reveals Unexpected Features of Its RNA Recognition and Function”.

Target: PTBP1 (Homo sapiens, UniProt P26599 1-557)
Assay: EMSA; apparent Kd; tRNA competitor; EMSA, 10 uL: 6 uL DG buffer (20 mM Hepes-KOH pH 7.9, 20% glycerol, 80 mM K-glutamate, 0.2 mM EDTA, 0.2 mM PMSF), about 2.2 mM MgCl2, 0.05 mg/ml tRNA, RNaseOut
Conditions: protein: recombinant; label: 32P (alpha-32P UTP, internal)

PTBP1, sequence (P26599 whole entry): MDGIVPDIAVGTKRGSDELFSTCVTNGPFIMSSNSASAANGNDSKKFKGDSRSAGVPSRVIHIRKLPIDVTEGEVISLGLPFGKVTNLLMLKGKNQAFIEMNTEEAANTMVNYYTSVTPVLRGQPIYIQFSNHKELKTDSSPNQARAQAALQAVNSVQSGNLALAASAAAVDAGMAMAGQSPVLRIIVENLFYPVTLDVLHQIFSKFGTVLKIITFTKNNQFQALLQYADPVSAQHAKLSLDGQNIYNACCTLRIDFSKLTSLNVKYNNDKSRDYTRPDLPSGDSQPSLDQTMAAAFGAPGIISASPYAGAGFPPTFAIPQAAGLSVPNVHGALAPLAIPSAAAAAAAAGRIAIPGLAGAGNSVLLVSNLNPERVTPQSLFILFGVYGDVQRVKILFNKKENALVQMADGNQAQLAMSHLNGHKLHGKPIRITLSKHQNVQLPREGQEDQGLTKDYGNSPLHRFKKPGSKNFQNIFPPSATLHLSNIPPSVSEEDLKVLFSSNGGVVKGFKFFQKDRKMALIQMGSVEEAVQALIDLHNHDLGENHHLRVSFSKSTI

B1: probe 10 (ssRNA)
RNA: GUGAGGGCUCUUUCUUCGUGGGACCGUAGAUAGGUAGCUGCUGCUGGUCUCACACUGUUCUCCCUACAG
B1 was tested, and the Kd was 73 nM.
